Molecular target: Heat shock protein 90 (Hsp90), purified, native (UniProt P07900 1-732)
Test: pull-down

FLVLL (head-to-tail cyclised macrocycle (cyclic pentapeptide)) [Sansalvamide A-amide (San A-amide), compound 1, macrocycle Phe-Leu-Val-Leu-Leu]
IC50: 19.7 µM

Reference: PMC2933939 (Bioorganic & medicinal chemistry, 2010)
